Test results as given in patent US11168320.

Molecular target: Thrombin (UniProt P00734+P00734)
Assay: EMSA
Settings: 0.1 nM aptamer, thrombin 0.1-12.8 nM; more than half bound at 0.1 nM thrombin

NTAGGDTGGGTAGGGTGGTNAGGGWTGATGYGTGGTAGGC [Bivalent aptamer AD]
Kd: < 100 pM
